From paper PMC11845978 (Protein Science : A Publication of the Protein Society, 2025) come the findings set out here.

The series deals with the molecule itself. Put plainly: […].

B1: Hendra virus PNT3 (aa 200–310 of the P/V/W proteins), wild type, full-length PNT3 (domain or fragment)
chain: TPTEEPPVIPEYYYGSGRRGDLSKSPPRGNVNLDSIKIYTSDDEDENQLEYEDEFAKSSSEVVIDTTPEDNDSINQEEVVGDPSDQGLEHPFPLGKFPEKEETPDVRRKDS
As to B1, the binding result was “binds”.
